The results in this text go back to paper PMC12615776, “Conformational alteration of DOCK5•ELMO1 signalosome on lipid membrane” (Communications Biology, 2025).

In the assay the target is T1, human ELMO1, full length (residues 1–727), tag cleaved (human, UniProt Q92556 1-727).
T1 construct: human ELMO1, full length, residues 1–727; Purified as a complex with DOCK5; also called engulfment and cell motility 1; source: FreeStyle 293-F cells, co-expressed with DOCK5, purified (Streptavidin Sepharose, TEV cleavage, SEC Superose 6); not shown: FLAG, N-terminal, cleaved
T1 sequence (Q92556 whole entry, the tested form may be a part): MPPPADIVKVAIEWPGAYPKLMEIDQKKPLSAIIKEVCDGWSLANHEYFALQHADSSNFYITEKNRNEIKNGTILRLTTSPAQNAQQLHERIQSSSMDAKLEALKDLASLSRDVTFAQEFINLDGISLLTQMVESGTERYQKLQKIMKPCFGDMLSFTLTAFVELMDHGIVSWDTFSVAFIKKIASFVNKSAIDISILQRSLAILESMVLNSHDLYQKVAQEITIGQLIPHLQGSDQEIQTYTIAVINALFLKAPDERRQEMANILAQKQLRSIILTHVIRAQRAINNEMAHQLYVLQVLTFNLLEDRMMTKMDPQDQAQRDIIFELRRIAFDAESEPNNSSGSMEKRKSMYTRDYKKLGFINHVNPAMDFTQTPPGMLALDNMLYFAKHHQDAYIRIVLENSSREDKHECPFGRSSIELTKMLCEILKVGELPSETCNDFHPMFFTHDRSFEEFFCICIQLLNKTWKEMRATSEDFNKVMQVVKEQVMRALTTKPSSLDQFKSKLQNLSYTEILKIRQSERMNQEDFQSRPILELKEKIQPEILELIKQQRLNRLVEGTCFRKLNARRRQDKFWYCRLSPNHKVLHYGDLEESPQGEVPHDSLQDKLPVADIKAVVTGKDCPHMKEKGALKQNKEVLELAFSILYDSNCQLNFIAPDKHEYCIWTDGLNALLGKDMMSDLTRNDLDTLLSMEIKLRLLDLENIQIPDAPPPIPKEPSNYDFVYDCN
The assay can be described thus: cryo-EM structure; purified DOCK5•ELMO1 complex mixed with a two-fold molar excess of Rac1^G15A-His10 and RhoG^Q61L-His10, pre-incubated on ice at least 1 h in 20 mM HEPES-NaOH pH 7.0, 150 mM NaCl, 1 mM MgCl2 (final 0.4 μM); bound to a lipid monolayer-coated grid [67PC/21PA/6PIP3/6DOGS-NTA Ni (mol%)]; single-particle analysis, C2, 6.98 Å (local 7.52 Å). Conditions: both partners purified.

B1: human RhoG (residues 1–191, Q61L mutant), C-terminal His10 (natural protein)
chain: not shown
notes: human RhoG, residues 1–191, Q61L; 10 μM GTP and 1 mM MgCl2 were added during purification to obtain the active form; Anchored to the lipid monolayer through His10 and DOGS-NTA(Ni); also called RhoG^Q61L; constitutively active mutant of RhoG; source: E. coli cell-free protein synthesis, purified (HisTrap, TEV cleavage, second HisTrap, SEC Superdex 75); not shown: N11 (modified natural …)
For B1, the binding result was “binds”.
